Drawing on patent publication US20220387457A1, this text covers Km for one protein.

A word on the Km: it is the substrate concentration at which the rate is half of its maximum.

Substrate in this data set: CC1(C)Oc2ccc(C#N)cc2[C@@H](N2CCCC2=O)[C@@H]1OP(=O)(O)O
Kind of data set: purified protein, by the assay type. The class given is biochemical, human. The note with it: other: ALP 0.02 U/100 μL, pH 10, 37.0 °C. How it is done: To activate CKLP1, the phosphate is hydrolyzed from phosphatases to produce leveromakalim, the active moiety that can open (activate) ATP-sensitive potassium channels.
In the first experiment, a fixed concentration of CKLP1 solution was incubated with varying concentrations of placenta-derived human alkaline phosphatase. To accomplish this, placenta-derived human alkaline phosphatase (0.0002 U) in a 100-μL volume was added to each of thirteen 1.5-mL tubes. To each tube, CKLP1 was then added at a fixed concentration [10 mM (0.4%)]. Tubes were inverted twice and incubated in a water bath at 37° C. At each of 13 different time points (0, 1, 2.5, 5, 15, and 30 minutes and at 1, 2, 4, 8, 24, 48, and 72 hours), a single tube was removed, and the reaction was stopped by the addition of 2 volumes (200 μL) of acetonitrile. Samples were stored at −80° C. The experiment was repeated with 10 mM CKLP1 (0.4%) in the presence of placenta-derived human alkaline phosphatase at concentrations of 0.002 U, 0.02 U, and 0.2 U. All assays were performed at pH 10.
In a second experiment, a fixed concentration of placenta-derived human alkaline phosphatase was incubated with varying concentrations of CKLP1. To accomplish this, a fixed concentration of 0.02 U of placenta-derived human alkaline phosphatase in a 100-μL volume was added to each of thirteen 1.5-mL tubes. […]

B1: placenta-derived human alkaline phosphatase (Homo sapiens) (protein)
chain: IIPVEEENPDFWNREAAEALGAAKKLQPAQTAAKNLIIFLGDGMGVSTVTAARILKGQKKDKLGPEIPLAMDRFPYVALSKTYNVDKHVPDSGATATAYLCGVKGNFQTIGLSAAARFNQCNTTRGNEVISVMNRAKKAGKSVGVVTTTRVQHASPAGTYAHTVNRNWYSDADVPASARQEGCQDIATQLISNMDIDVILGGGRKYMFRMGTPDPEYPDDYSQGGTRLDGKNLVQEWLAKRQGARYVWNRTELMQASLDPSVTHLMGLFEPGDMKYEIHRDSTLDPSLMEMTEAALRLLSRNPRGFFLFVEGGRIDHGHHESRAYRALTETIMFDDAIERAGQLTSEEDTLSLVTADHSHVFSFGGYPLRGSSIFGLAPGKARDRKAYTVLLYGNGPGYVLKDGARPDVTESESGSPEYRQQSAVPLDEETHAGEDVAVFARGPQAHLVHGVQEQTFIAHVMAFAACLEPYTACDLAPPAGTTD
notes: varying concentrations of placenta-derived human alkaline phosphatase; from tissue; host or cells: human placenta
B1: the Michaelis-Menten constant (Km) was 399 µM.
